Measurements from article PMC5600358.

These binders were tested against WT1 ZF-KTS (zinc finger domain, -KTS isoform) (Homo sapiens (cDNA from HL-60 cells), UniProt P19544 312-407+411-449, internal_change) (assay: EMSA).

Row | Binder | binding result
1 | ds59 (Pu59/Py59) (dsDNA) DNA 1: GGCGGCGCGGAGGGGCGGGCGCGGGAGGAAGGGGGCGGGACGGGGCTGTGGTGCCTGT DNA 2: ACAGGCACCACAGCCCCGTCCCGCCCCCTTCCTCCCGCGCCCGCCCCTCCGCGCCGCC | binds
2 | Pu59 (G-strand) (structured_DNA) DNA: GGCGGCGCGGAGGGGCGGGCGCGGGAGGAAGGGGGCGGGACGGGGCTGTGGTGCCTGT | no binding
3 | Py59 (C-strand) (ssDNA) DNA: ACAGGCACCACAGCCCCGTCCCGCCCCCTTCCTCCCGCGCCCGCCCCTCCGCGCCGCC | no binding
